How the values were obtained:
[1] = target: His-BhXyl43 (Bacillus halodurans C-125); assay: SAXS; proteins in 50 mM phosphate pH 7, around 10 mg/mL; direct injection and online SEC-HPLC curves merged; fit to the dimer of PDB 1YRZ or rigid body modelling; dimer to monomers
[2] = target: His-In-NpXyn11A-BhXyl43-Jo (not stated | Neocallimastix patriciarum | Bacillus halodurans C-125); assay: as above
[3] = target: His-In-NpXyn11A-Jo-BhXyl43 (not stated | Neocallimastix patriciarum | Bacillus halodurans C-125); assay: as above
purified protein = substrate: O=[N+]([O-])c1ccc(O[C@@H]2OC[C@@H](O)[C@H](O)[C@H]2O)cc1; assay: purified protein; assay type: biochemical, Halalkalibacterium halodurans; settings: 50 mM Tris-HCl pH 8, 1 mg/mL BSA, 45 °C, 10 min, 0.1 to 18 mM substrate

**Q.** For His-BhXyl43 (enzyme), which stoichiometry N [1] is on record?
**A.** 2

**Q.** For His-In-NpXyn11A-BhXyl43-Jo (complex), which stoichiometry N [2] is on record?
**A.** 2

**Q.** With His-In-NpXyn11A-Jo-BhXyl43 (complex) as the molecule, how does the stoichiometry N [3] read?
**A.** 2

B1: His-Jo-BhXyl43 (Halalkalibacterium halodurans C-125) (protein)
chain: MVNRIQNPILPGFHPDPSIVRVGDDYYIATSTFEWFPGVRIHHSRDLKHWRFVSSPLTRTSQLDMKGNMNSGGIWAPCLSYHDGTFYLIYTDVKQWHGAFKDAHNYLVTAQNIEGPWSDPIYLNSSGFDPSLFHDDDGRKWLVNMIWDYRKGNHPFAGIILQEYSEAEQKLVGPVKNIYKGTDIQLTEGPHLYKKDGYYYLLVAEGGTEYEHAATLARSQSIDGPYETDPSYPLVTSTGQPELALQKAGHGSLVETQNGEWYLAHLCGRPLKGKYCTLGRETAIQKVNWTEDGWLRIEDGGNHPLREVTAPDLPEHPFEKEPELDDFDAPQLHHQWNTLRIPADPSWCSLEERPGHLRLRGMESLTSVHSQSLVARRQQSFHCEVETKLEYQPESFQHMAGLVIYYDTEDHVYLHVTWHEEKGKCLQIIQTKGGNYDELLASPIPLAEEKAVYLKGRIHRETMHLYFKQEGEAEWQPVGPTIDVTHMSDDSAKQVRFTGTFVGMATQDLSGTKKPADFDYFRYKELDQ
notes: N-terminal His6 tag and Jo module (about 10 kDa, isopeptide-forming fragment) fused to the N-terminus of BhXyl43 (63 kDa); expressed in E. coli BL21(DE3), IMAC purified
**Q.** Which results are given for B1?
**A.** Km (purified protein): 6.01 ± 0.41 mM; kcat (purified protein): 18.1 ± 1.17 s⁻¹; kcat/Km (purified protein): 3015 ± 10.9 M⁻¹ s⁻¹
